B1: recombinant human MBL-Associated Serine Protease-2 (rMASP-2) (protein)
chain: TPLGPKWPEPVFGRLASPGFPGEYANDQERRWTLTAPPGYRLRLYFTHFDLELSHLCEYDFVKLSSGAKVLATLCGQESTDTERAPGKDTFYSLGSSLDITFRSDYSNEKPFTGFEAFYAAEDIDECQVAPGEAPTCDHHCHNHLGGFYCSCRAGYVLHRNKRTCSALCSGQVFTQRSGELSSPEYPRPYPKLSSCTYSISLEEGFSVILDFVESFDVETHPETLCPYDFLKIQTDREEHGPFCGKTLPHRIETKSNTVTITFVTDESGDHTGWKIHYTSTAQPCPYPMAPPNGHVSPVQAKYILKDSFSIFCETGYELLQGHLPLKSFTAVCQKDGSWDRPMPACSIVDCGPPDDLPSGRVEYITGPGVTTYKAVIQYSCEETFYTMKVNDGKYVCEADGFWTSSKGEKSLPVCEPVCGLSARTTGGRIYGGQKAKPGDFPWQVLILGGTTAAGALLYDNWVLTAAHAVYEQKHDASALDIRMGTLKRLSPHYTQAWSEAVFIHEGYTHDAGFDNDIALIKLNNKVVINSNITPICLPRKEAESFMRTDDIGTASGWGLTQRGFLARNLMYVDIPIVDHQKCTAAYEKPPYPRGSVTANMLCAGLESGGKDSCRGDSGGALVFLDSETERWFVGGIVSWGSMNCGEAGQYGVYTKVINYIPWIENIISDF
B2: recombinant human MBL-Associated Serine Protease-1 (rMASP-1) (protein)
chain: HTVELNNMFGQIQSPGYPDSYPSDSEVTWNITVPDGFRIKLYFMHFNLESSYLCEYDYVKVETEDQVLATFCGRETTDTEQTPGQEVVLSPGSFMSITFRSDFSNEERFTGFDAHYMAVDVDECKEREDEELSCDHYCHNYIGGYYCSCRFGYILHTDNRTCRVECSDNLFTQRTGVITSPDFPNPYPKSSECLYTIELEEGFMVNLQFEDIFDIEDHPEVPCPYDYIKIKVGPKVLGPFCGEKAPEPISTQSHSVLILFHSDNSGENRGWRLSYRAAGNECPELQPPVHGKIEPSQAKYFFKDQVLVSCDTGYKVLKDNVEMDTFQIECLKDGTWSNKIPTCKIVDCRAPGELEHGLITFSTRNNLTTYKSEIKYSCQEPYYKMLNNNTGIYTCSAQGVWMNKVLGRSLPTCLPVCGLPKFSRKLMARIFNGRPAQKGTTPWIAMLSHLNGQPFCGGSLLGSSWIVTAAHCLHQSLDPEDPTLRDSDLLSPSDFKIILGKHWRLRSDENEQHLGVKHTTLHPQYDPNTFENDVALVELLESPVLNAFVMPICLPEGPQQEGAMVIVSGWGKQFLQRFPETLMEIEIPIVDHSTCQKAYAPLKKKVTRDMICAGEKEGGKDACAGDSGGPMVTLNRERGQWYLVGTVSWGDDCGKKDRYGVYSYIHHNKDWIQRVTGVRN
B3: recombinant human MBL-Associated Serine Protease-3 (rMASP-3) (protein)
chain: HTVELNNMFGQIQSPGYPDSYPSDSEVTWNITVPDGFRIKLYFMHFNLESSYLCEYDYVKVETEDQVLATFCGRETTDTEQTPGQEVVLSPGSFMSITFRSDFSNEERFTGFDAHYMAVDVDECKEREDEELSCDHYCHNYIGGYYCSCRFGYILHTDNRTCRVECSDNLFTQRTGVITSPDFPNPYPKSSECLYTIELEEGFMVNLQFEDIFDIEDHPEVPCPYDYIKIKVGPKVLGPFCGEKAPEPISTQSHSVLILFHSDNSGENRGWRLSYRAAGNECPELQPPVHGKIEPSQAKYFFKDQVLVSCDTGYKVLKDNVEMDTFQIECLKDGTWSNKIPTCKIVDCRAPGELEHGLITFSTRNNLTTYKSEIKYSCQEPYYKMLNNNTGIYTCSAQGVWMNKVLGRSLPTCLPECGQPSRSLPSLVKRIIGGRNAEPGLFPWQALIVVEDTSRVPNDKWFGSGALLSASWILTAAHVLRSQRRDTTVIPVSKEHVTVYLGLHDVRDKSGAVNSSAARVVLHPDFNIQNYNHDIALVQLQEPVPLGPHVMPVCLPRLEPEGPAPHMLGLVAGWGISNPNVTVDEIISSGTRTLSDVLQYVKLPVVPHAECKTSYESRSGNYSVTENMFCAGYYEGGKDTCLGDSGGAFVIFDDLSQRWVVQGLVSWGGPEECGSKQVYGVYTKVSNYVDWVWEQMGLPQSVVEPQVER

How the values were obtained:
[1] = target: recombinant, full-length, non-tagged mannose-binding lectin (rMBL), P11226
[2] = target: recombinant human Ficolin-3 (rFicolin-3), O75636
Chain of recombinant human Ficolin-3 (rFicolin-3), O75636 (O75636 24-299): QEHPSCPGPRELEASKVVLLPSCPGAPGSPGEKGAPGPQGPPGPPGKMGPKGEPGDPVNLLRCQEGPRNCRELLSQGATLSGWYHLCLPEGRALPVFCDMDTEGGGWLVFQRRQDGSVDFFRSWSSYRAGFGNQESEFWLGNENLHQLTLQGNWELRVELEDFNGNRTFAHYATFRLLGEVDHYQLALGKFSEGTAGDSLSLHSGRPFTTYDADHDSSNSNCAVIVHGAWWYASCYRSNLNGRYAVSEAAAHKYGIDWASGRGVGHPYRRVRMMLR

Chain of recombinant, full-length, non-tagged mannose-binding lectin (rMBL), P11226 (P11226 21-248): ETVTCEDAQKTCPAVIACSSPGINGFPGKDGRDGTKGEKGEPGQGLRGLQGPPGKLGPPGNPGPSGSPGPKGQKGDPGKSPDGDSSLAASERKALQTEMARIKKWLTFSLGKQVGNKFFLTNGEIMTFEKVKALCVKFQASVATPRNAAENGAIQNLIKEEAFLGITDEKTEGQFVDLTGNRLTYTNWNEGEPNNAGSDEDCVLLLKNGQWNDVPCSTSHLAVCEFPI

| Protein | C4 deposition (mannan/rMBL, MBL deficient serum) [1] | activation of C3 and C4 [1] | C4 deposition (AcBSA/rFicolin-3, Ficolin-3 deficient serum) [2] |
| --- | --- | --- | --- |
| B1 | Application of rMASP-2 resulted in a strong positive dose dependent enhancement of the C4 deposition via both the Ficolin-3 and MBL activation pathways | MASP-2 were able to strongly activate both the C3 and C4 complement proteins | Application of rMASP-2 resulted in a strong positive dose dependent enhancement of the C4 deposition via both the Ficolin-3 and MBL activation pathways |
| B2 |  | MASP-1 were able to activate both the C3 and C4 complement proteins |  |
| B3 |  | MASP-3 were able to inhibit the activation of both the C3 and C4 complement proteins |  |

— patent US20130217616
